Test results taken from the supplement of paper PMC12764529.
± gives the half width of the 95% confidence interval.

What was measured:
[1] = folding stability dG unfold from chymotrypsin proteolysis; higher = more stable
Procedure, shortened: (§1)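 Unfolding free energy was derived, per protease or combined, by relating Bayesian-fitted K50 values from sequencing counts to a sequence-predicted unfolded-state K50 and a shared folded-state K50. The underlying digests exposed cysteine-free mini-proteins under 80 residues, in a PA-tagged cDNA display construct, to trypsin and chymotrypsin at 11 threefold-diluted concentrations and to a no-protease condition. A filter kept only designs with AlphaFold2 dimer inter-PAE above 15.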

[2] = folding stability dG unfold from trypsin proteolysis; higher = more stable
Procedure, shortened: as §1

[3] = folding stability dG unfold (combined trypsin and chymotrypsin); higher = more stable
Procedure, shortened: as §1

| Sequence | folding stability dG unfold [1] | folding stability dG unfold [2] | folding stability dG unfold [3] |
| --- | --- | --- | --- |
| SAGLDIKKIEFDPNGYLRIEVVYDKNISIKEIIEEIKKLTGATVEKVEVKPTKNGVKAIFILKIDKNLKSAG [r5_774_TrMRF] | 3.052 ± 0.021 kcal/mol | 1.12 ± 0.042 kcal/mol | 2.6 ± 0.11 kcal/mol |
| SAGLEDAQKEKRFVIKIEIRHPNGEKVKMTIAFKPGDPEDIRDELRKMGMPPDDLNERNPNLKIDEIEPSAG [r5_430_TrROS] | 1.59 ± 0.079 kcal/mol | 0.646 ± 0.084 kcal/mol | 1.29 ± 0.11 kcal/mol |
| SAGLKVESQTYDPATGTATVTPPLEGVPPDYTITVTDTATGKKTTLPPDGDVTLSNPTGPVTVTLTRPASAG [r14_134_JUSTAS] | 0.354 ± 0.093 kcal/mol | 0.152 ± 0.038 kcal/mol | 0.277 ± 0.074 kcal/mol |
| SAGLKVRIRTKDGREIEIEVSEEEAERLVKELEDAGFTVERVEVEELEPEEEKEELEEEERELKEELEESAG [r5_645_TrROS_Hall] | 2.91 ± 0.069 kcal/mol | 3.28 ± 0.27 kcal/mol | 2.72 ± 0.32 kcal/mol |
| SAGLRIEPTPDYIKITMPGPNMANEIIKKIQEHFGDIEIDDIKPEPYPNGNNRVTIWIPLKNLPPELLKSAG [r5_857_TrROS] | 1.18 ± 0.085 kcal/mol | 0.895 ± 0.028 kcal/mol | 1.06 ± 0.07 kcal/mol |
| SAGMAEEAREAARLFASELAPRFGVEAEIPEVRVEFDPETGEVHVHLEVLFRLPEPRTVRRDFVLVLPLSAG [r5_381_TrMRF] | 1.92 ± 0.13 kcal/mol | 1.3 ± 0.086 kcal/mol | 1.67 ± 0.1 kcal/mol |
| SAGMAKVKLKVEVYFPKTGKPVTMEIEVEGLTLEEIIEEVKKAIEAIGLKIDPDAPVKIVITDIEVYPGSAG [r5_230_TrMRF] | 3.77 ± 0.039 kcal/mol | 3.75 ± 0.11 kcal/mol | 3.77 ± 0.077 kcal/mol |
| SAGMARIIPNPPVIEVVRKDGSKLVIPPEEIEELRAALEAKGGPYTPEEIAEAIRKLFPDYEVSIVPASAGG [r19_46_TrMRF] | -0.0899 ± 0.17 kcal/mol | -0.284 ± 0.38 kcal/mol | -0.109 ± 0.22 kcal/mol |
| SAGMDFPESYTPIASNGKTLVFKSPTEVYIVLYSPEGGSEVRSFTPGDESVLNPFLEELKKSDYVNLNISAG [r14_12_JUSTAS] | 1.1 ± 0.087 kcal/mol | 0.695 ± 0.028 kcal/mol | 0.995 ± 0.093 kcal/mol |
| SAGMDKPLKVLEIGGAILPNTGKVVLKAKVEDPDSNTPLDLTLTLPVVDPVTGKPYIFTASYTYESPLSAGG [r19_129_TrMRF] | 0.844 ± 0.17 kcal/mol | 0.338 ± 0.13 kcal/mol | 0.681 ± 0.12 kcal/mol |
| SAGMEAIRKKAEELAKKGKIFKITLTGPDGIPETKILSPEEFKKFLEEFPDPEAIASVEVEAYEPGKPISAG [r5_957_JUSTAS] | 3.78 ± 0.046 kcal/mol | 2.35 ± 0.1 kcal/mol | 3.24 ± 0.1 kcal/mol |
| SAGMEIEITGPNLEELAEKVAKELKEKNWSPPVTITLKEPGGKTVLKVTVEFNPPNPNEIKVTKEKVESAGG [r19_85_JUSTAS] | 0.902 ± 0.062 kcal/mol | 0.571 ± 0.14 kcal/mol | 0.683 ± 0.18 kcal/mol |
| SAGMEKAINLAKEYAKKLGLPLESINVTEIGNSVIIEMKIPEKGETITVNIPIHPDGTISLNIKFEKKKSAG [r5_888_JUSTAS] | 2.623 ± 0.019 kcal/mol | 1.2 ± 0.037 kcal/mol | 2.09 ± 0.087 kcal/mol |
| SAGMEKKTLTVTHPDGSEATVEVYKNPETGKYVTLVHYPETGKYEVFDDNGNLIATFGNGSAADAFKAISAG [r5_757_TrMRF] | 1.8 ± 0.1 kcal/mol | 0.375 ± 0.054 kcal/mol | 1.44 ± 0.13 kcal/mol |
| SAGMETIEVPLPVEEIKEALDAGLSPEEIARLLAEETGEEVEIEVGGRKITITRNEDGELIVRIEVKPDSAG [r5_343_TrROS_Hall] | 2.22 ± 0.091 kcal/mol | 2.51 ± 0.085 kcal/mol | 2.36 ± 0.2 kcal/mol |
| SAGMETVTVEVDGATITFVKNEDGTVTAIVTYPNGEVEIYNADGELIRRERLPNGLVVFEFTKEELEKLSAG [r5_457_TrROS_Hall] | 2.09 ± 0.068 kcal/mol | 1.19 ± 0.057 kcal/mol | 1.93 ± 0.14 kcal/mol |
| SAGMETVVTYDPSNGTVTTTTTVFAPDGTPLGSLSTTTPIGGGTITYTTITIDPETGTVTTTTTAYPGASAG [r5_34_JUSTAS] | 4.49 ± 0.086 kcal/mol | 2.77 ± 0.093 kcal/mol | 4.25 ± 0.11 kcal/mol |
| SAGMEVEILGAEVDPETGVVKVVAVGRDPVTGVLVVDEITIKGDTVEIRREVYFPNTGKKAETTATIPLSAG [r5_150_TrMRF] | 1.43 ± 0.071 kcal/mol | 1.66 ± 0.13 kcal/mol | 1.55 ± 0.12 kcal/mol |
| SAGMGIVEALRRELEAAGLDVRVSATVEPLPDLGYVLITVHVEVRNENGEWVPLGPLTILLPVEEAERLSAG [r5_413_TrMRF] | 2.43 ± 0.07 kcal/mol | 2.9 ± 0.12 kcal/mol | 2.55 ± 0.13 kcal/mol |
| SAGMIATITITRPGTGSITLTVPVPVPSEEEARAYAEAVREALRAADPGPLEVSVEFERVPPVPPERLGSAG [r5_87_JUSTAS] | 1.85 ± 0.036 kcal/mol | 1.6 ± 0.038 kcal/mol | 1.75 ± 0.1 kcal/mol |
| SAGMIEINNVTPNYVMIKIWNPDNGKKWEIPIQYERDNGKPYSKDKALEEIKDIAKEFYPDFDIEVEPVSAG [r5_293_TrROS] | 0.727 ± 0.14 kcal/mol | 0.0269 ± 0.15 kcal/mol | 0.41 ± 0.25 kcal/mol |

| Sequence | folding stability dG unfold [1] | folding stability dG unfold [2] | folding stability dG unfold [3] |
| --- | --- | --- | --- |
| SAGMIKIEETDGKLKVTITLKADDPEEITVEMIKEELEKLGLEVAEIKITPEPNEDGQYTVTAEIVVDVSAG [r5_922_TrMRF] | 3.06 ± 0.16 kcal/mol | 2.99 ± 0.39 kcal/mol | 3.08 ± 0.23 kcal/mol |
| SAGMIKVEVVEKDEKTKEWKVVETKTIPVKPGEKPTVEELAKKLKEKGYEVRIEKTKDGTLKIYVIKKKSAG [r5_269_TrROS_Hall] | 4.08 ± 0.061 kcal/mol | 3.33 ± 0.2 kcal/mol | 3.78 ± 0.16 kcal/mol |
| SAGMISPEEIAKRLKAGEPVEIYLPDPAEKEALLAELQKLLGLSEEELKEIFAKMKFTEIPATDPRLLASAG [r5_368_JUSTAS] | 2.03 ± 0.058 kcal/mol | 1.16 ± 0.045 kcal/mol | 1.67 ± 0.046 kcal/mol |
| SAGMISSVSSEPSTNTTTATIPETGKTITYNPETGTLTVTPPTGNPSVIPVETPEEAERAMEEVIAELSSAG [r5_467_JUSTAS] | 0.228 ± 0.038 kcal/mol | 1.11 ± 0.041 kcal/mol | 0.816 ± 0.079 kcal/mol |
| SAGMITISEEEARELGVPIGASEEEIKEALAARLREEGYKVEFPSVVKEKVDPKTGKVEYKIDINLKPLSAG [r5_23_JUSTAS] | -0.104 ± 0.48 kcal/mol | 1.3 ± 0.051 kcal/mol | 0.807 ± 0.18 kcal/mol |
| SAGMKEIKIKDAKIEVKKKKDGKKVKRITLKDGKEIEIKEDGSIIIRNKKTGKYIKLPKNMTIEELLKKSAG [r5_348_TrROS_Hall] | 1.74 ± 0.029 kcal/mol | 0.925 ± 0.09 kcal/mol | 1.48 ± 0.098 kcal/mol |
| SAGMKEVTVSKDELEEILKKLPPNKTYKVTLYNPNGPTYEFTVTVENDTIKINEGPPNKSENLKVTLVSSAG [r5_85_JUSTAS] | 2.32 ± 0.024 kcal/mol | 1.53 ± 0.036 kcal/mol | 2 ± 0.051 kcal/mol |
| SAGMKIKIVKIEKEEDGTIRVELEITDPNGNKYRVEAEIDLKDPNKIKIKVINEDTGEEFEIELTIKKPSAG [r5_345_TrROS_Hall] | 5.19 ± 0.2 kcal/mol | 3.6 ± 0.23 kcal/mol | 5.24 ± 0.35 kcal/mol |
| SAGMKITISYDEAKGIATVTLYEERPVETPNGPVTLRRKVATVTIPYTSLEEAKKQAEEAAKALLEKLSSAG [r5_956_JUSTAS] | 5.036 ± 0.033 kcal/mol | 5.11 ± 0.14 kcal/mol | 5.06 ± 0.084 kcal/mol |
| SAGMKITYKRPDGTPAEPIPEEEIKKLAEEKAKELYPNKPDATVTVTITIKTNNNEPLIITMTVTIKNESAG [r5_526_JUSTAS] | 1.13 ± 0.18 kcal/mol | 0.982 ± 0.054 kcal/mol | 1 ± 0.38 kcal/mol |
| SAGMKKVIELTIPVTGPEEVEELVAKLEEEEPAVPVERRPDPRLGAVRVVVEKKFPDSIVYITLTAAASAGG [r19_262_JUSTAS] | 0.496 ± 0.071 kcal/mol | 0.784 ± 0.042 kcal/mol | 0.677 ± 0.065 kcal/mol |
| SAGMKLELLLPAEEAVRLFGPDFDARDLARALASEGYVVESVEAEPFPNPEEGGLYLRVTFDVRPPDASAGG [r19_376_TrMRF] | 1.4 ± 0.061 kcal/mol | 1.37 ± 0.018 kcal/mol | 1.38 ± 0.045 kcal/mol |
| SAGMKPGEKVKVTLTLTETRVEEVDGEKKVEKRTLTIEVTVEVSEEDREKALEEAEELARKLAEEGLIPSAG [r5_532_TrROS_Hall] | 1.24 ± 0.07 kcal/mol | 1.21 ± 0.15 kcal/mol | 1.31 ± 0.28 kcal/mol |
| SAGMKPNETLPNAIIRIENSKGKVKEFTLPNVVSIEEIDEKNGIITLTLPNNKKITLKVPKNAKITIEGSAG [r5_762_TrMRF] | 3.5 ± 0.049 kcal/mol | 3.04 ± 0.11 kcal/mol | 3.37 ± 0.049 kcal/mol |
| SAGMKTKTIEETITFTFPPGNPPDLEEIKEKLKSKGVKVLKVEMFEPPGDYYVVTAKVVKELEPSELLSSAG [r5_167_JUSTAS] | 2.27 ± 0.039 kcal/mol | 0.934 ± 0.072 kcal/mol | 1.84 ± 0.13 kcal/mol |
| SAGMKVILIIAPEEKIEEIFEEIKKIAEEHGLDLKLDKIEPLPEKGYLVIVTVKNPESDETTVILVLVPSAG [r5_41_TrMRF] | 3.75 ± 0.077 kcal/mol | 2.96 ± 0.096 kcal/mol | 3.55 ± 0.12 kcal/mol |
| SAGMKVTTFTTPTRTVTVTLTPDGTVTVTVTDPSGNPTVTAPDGTPVASTTAPDGTTTFTLDPALFAAASAG [r5_457_JUSTAS] | 0.965 ± 0.1 kcal/mol | 0.717 ± 0.047 kcal/mol | 0.896 ± 0.073 kcal/mol |
| SAGMKYTFKILVKADSPEEAIETAKKLVEKWLKENFPELPEGVKIKEIKVEPLPDDYYLVTITVEFDPESAG [r5_320_TrMRF] | 5.51 ± 0.091 kcal/mol | 4.2 ± 0.19 kcal/mol | 5.49 ± 0.1 kcal/mol |
| SAGMLRELLDNPDVKRLEIVIFIPEEDLSEEDRERARERARELAERLRELLRERGYDVEIEVRIVRLPPSAG [r5_408_TrROS_Hall] | 3.22 ± 0.062 kcal/mol | 3.5 ± 0.11 kcal/mol | 3.39 ± 0.088 kcal/mol |
| SAGMLRVDIEIPPAFRKMLKNAPPGETVMFELPIKIKIEYYQPDGGKPEPKEHEQPFPVQFMVVLPPDGSAG [r5_946_TrROS] | 3.18 ± 0.12 kcal/mol | 2.14 ± 0.16 kcal/mol | 2.84 ± 0.2 kcal/mol |
| SAGMLVRVTLKYPDGKTIKIPFPYAKILSEETSNNETTFTIDSPESADKAVEAIKKEYPDIEVKVEPLESAG [r5_453_JUSTAS] | 2.46 ± 0.035 kcal/mol | 1.67 ± 0.022 kcal/mol | 2.23 ± 0.058 kcal/mol |
